Several values for one entry are separate records, joined by “and”; a condition that tells them apart may be missing. Equal values may be shown once.
T1: monomeric TRAF6 (T6m), TRAF6 MATH domain (Homo sapiens, UniProt Q9Y4K3)
T1 construct: (human TRAF6 residues 350-501) – LE – HHHHHH; made in house; host or cells: E. coli Rosetta2(DE3)
T1 sequence (Q9Y4K3 350-501): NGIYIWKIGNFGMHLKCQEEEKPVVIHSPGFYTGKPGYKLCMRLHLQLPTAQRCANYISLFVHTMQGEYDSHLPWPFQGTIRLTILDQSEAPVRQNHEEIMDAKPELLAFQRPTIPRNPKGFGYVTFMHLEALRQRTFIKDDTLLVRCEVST

T2: TRAF6 trimeric construct T6cc (coiled-coil and MATH domains) (human, UniProt Q9Y4K3 310-504, biotin on the BAP tag)
T2 chain: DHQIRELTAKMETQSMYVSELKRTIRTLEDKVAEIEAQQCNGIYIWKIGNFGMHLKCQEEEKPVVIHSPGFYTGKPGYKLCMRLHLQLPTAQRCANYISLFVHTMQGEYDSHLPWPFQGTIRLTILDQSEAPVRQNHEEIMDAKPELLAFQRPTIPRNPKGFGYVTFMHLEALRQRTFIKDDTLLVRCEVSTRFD

T3: TRAF6 trimeric construct T6cc (coiled-coil and MATH domains) (human, UniProt Q9Y4K3 310-504, biotin on the BAP tag)
T3 construct: human TRAF6, residues 310-504, including the coiled-coil trimerization domain and the MATH domain; Expressed from a pDW363 vector; Concentrations of T6cc are reported as monomer concentrations; also called trimeric TRAF6; biotinylated TRAF6 homotrimers; source: E. coli BL21(DE3), co-expressed with BirA, purified (Ni-NTA, gel filtration); not shown: BAP tag, N-terminal, kept
T3 sequence (looked up): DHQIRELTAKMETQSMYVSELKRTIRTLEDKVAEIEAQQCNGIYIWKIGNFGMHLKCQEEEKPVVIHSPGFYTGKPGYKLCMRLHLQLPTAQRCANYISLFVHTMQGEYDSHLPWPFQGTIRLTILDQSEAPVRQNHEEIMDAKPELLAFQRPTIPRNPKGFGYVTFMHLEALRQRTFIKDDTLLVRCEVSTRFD


Legend:
[1] = target: T1, monomeric TRAF6 (T6m), TRAF6 MATH domain; assay: Biolayer interferometry (BLI), SUMO-peptide on tip, TRAF6 monomer in solution; details: biotinylated SUMO-peptide on streptavidin tip, T6m in solution up to 150 μM; 20 mM Tris pH 8.0, 207 mM NaCl; room temperature; steady-state fit; average of 3 replicate binding curves ± SEM
Source text: To further validate the cell‐surface interactions identified in the screen, we measured TRAF6‐peptide binding by biolayer interferometry (BLI), using purified monomeric TRAF6 MATH domain (construct termed T6m) in solution and purified peptides attached to the sensor tip (see Table S1 for construct details). […] The BLI data validate the cell‐surface display results and support the conclusion that top hits from the screen bind with higher affinity than CD40*, which is one of the tightest known TRAF6 peptide binders[19] (Figure 3). Based on these observations, we conclude that despite the screening assay being performed in the environment of the cell surface, and in a multi‐valent context, enrichment sorting returned high‐affinity binders.
Vectors, bacterial cells, and cloning: The expression constructs and cell surface display constructs are detailed in Table S1. The TRAF6 trimeric construct, here termed T6cc, consisted of residues 310–504 of human TRAF6 (including the MATH domain and coiled‐coil trimerization domain), an N‐terminal BAP tag for biotinylation, and a hexahistidine tag for purification. The construct was expressed using a pDW363 vector to ensure biotinylation. A monomeric TRAF6 construct lacking the trimerization domain and BAP tag, here termed T6m, consisted of residues 350–501 of human TRAF6 and a hexahistidine tag. The construct was expressed in a pDW363 vector, although the lack of a BAP tag ensured no biotinylation of this protein. SUMO‐peptide fusion constructs contained a BAP tag, hexahistidine tag, and SUMO tag. The construct was expressed in a pDW363 vector to ensure biotinylation. E. coli strains BL21(DE3), DH5α, and MC1061 were used for protein expression, cloning, and surface display, respectively. For bacterial surface display of TRAF6‐binding peptides, the eCPX vector designed by the Daugherty group[56] was modified at the C‐terminus to append a FLAG sequence, a linker containing a SfiI site, and the CD40* peptide sequence, which included 9 residues resolved in the X‐ray structure of CD40* bound to TRAF6 (PDB ID: 1LB6[19]) plus 8 flanking residues on each side of this core region. The CD40*‐derived sequence used was […].
Protein purification and preparation: T6cc was co‐expressed with the biotin ligase BirA (from the pDW363 vector) in BL21(DE3) E. coli for 5 hours at 37°C. Media was supplemented with 0.05 mM D‐(+)‐biotin. The protein was then purified using Ni^2+‐NTA affinity chromatography followed by gel‐filtration chromatography into a final buffer of 20 mM Tris pH 8.0, 150 mM NaCl, 5% glycerol, 1 mM DTT. Purified protein was concentrated before storing at −80°C in aliquots for later use. Concentrations of T6cc are reported as monomer concentrations. […]

[2] = target: RANK peptide (Homo sapiens); assay: ITC; details: cited from earlier work
[3] = target: TRAF6; details: reported affinity for TRAF6, ITC; read-out: Kd by isothermal titration calorimetry; cited from earlier work
Source text: High‐affinity TRAF6 binders isolated in this work can serve as lead peptides for inhibitor development. TRAF6 signaling is implicated in inflammation and cardiovascular disease.[12], [13], [18] Targeting TRAF6 MATH is reported to improve insulin sensitivity in obese mice, improve heart function in mouse models of non‐ischemic cardiac failure, reduce atherosclerosis, and inhibit osteoclastogenesis and bone resorption.[14], [15], [16], [17] A RANK peptide attached to a protein transduction sequence to promote cell entry is currently sold commercially as a TRAF6 inhibitor (e.g., Novus Biologicals ...

[4] = target: T2, TRAF6 trimeric construct T6cc …; assay: FACS
[5] = target: T2, TRAF6 trimeric construct T6cc …; assay: FACS; apparent Kd*, cell-surface display
[6] = target: biotinylated SUMO-peptide fusion of …; assay: BLI; biotinylated SUMO-peptides immobilised on streptavidin tips, T6m in solution; room temperature; 20 mM Tris pH 8.0, 207 mM NaCl, 1 mM DTT, 1% glycerol, 0.1% BSA, 0.1% Tween-20; steady-state fit, SUMO-only control subtracted
[7] = target: biotinylated SUMO-peptide fusion of CD40* (…) (human); assay: as above
[8] = target: … peptide displayed on E. coli via eCPX (human); assay: flow cytometry on cells; single-clone titration: biotinylated T6cc (0 nM to 3 uM, eight concentrations) on peptide-displaying E. coli, 4°C 60 min in PBS + BSA, detected with streptavidin-PE; apparent cell-surface constant Kd*, multivalent, not likely at equilibrium
[9] = target: T3, TRAF6 trimeric construct T6cc …; assay: as above; details: one partner purified

Chain of TRAF6 (from UniProt Q9Y4K3) (Q9Y4K3 whole entry): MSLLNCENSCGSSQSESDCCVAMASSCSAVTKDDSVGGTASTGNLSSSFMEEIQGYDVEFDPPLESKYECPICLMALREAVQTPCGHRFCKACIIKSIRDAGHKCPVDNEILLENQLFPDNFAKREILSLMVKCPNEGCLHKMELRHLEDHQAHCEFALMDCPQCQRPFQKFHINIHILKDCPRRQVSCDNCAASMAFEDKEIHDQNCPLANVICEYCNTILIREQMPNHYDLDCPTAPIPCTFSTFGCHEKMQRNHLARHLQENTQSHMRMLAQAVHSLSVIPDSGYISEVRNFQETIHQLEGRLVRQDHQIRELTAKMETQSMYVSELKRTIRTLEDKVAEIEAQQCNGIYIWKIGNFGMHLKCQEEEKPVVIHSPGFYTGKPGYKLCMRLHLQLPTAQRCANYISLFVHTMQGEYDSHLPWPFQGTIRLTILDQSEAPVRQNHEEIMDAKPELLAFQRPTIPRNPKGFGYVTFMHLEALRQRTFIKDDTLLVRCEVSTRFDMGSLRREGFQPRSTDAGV

Row | Molecule | Kd [4] | Kd [5] | further results
1 | TNWPEENDW | – | – | Kd [1]: 37200 nM
2 | LNLPEESDW | – | – | Kd [1]: 27500 nM
3 | TRAF6 (from UniProt Q9Y4K3) | – | – | Kd [2]: 78000 nM
4 | KQEPQEIDF [CD40*, reference compound] | – | – | Kd [3]: 84000 nM; Kd [1]: 240000 ± 23000 nM
5 | RNVPEESDW | – | – | Kd [1]: 24000 ± 3800 nM
6 | PQDPVETFW | 374 nM | 374 nM | –
7 | MNAPVESDW | 110 nM | 110 nM | –
8 | LQLPEENDW | 498 nM | 498 nM | –
9 | QNLPTESDW | 45.2 nM | 45.2 nM | –
10 | TRAF6 monomeric MATH domain construct T6m (domain or fragment) NGIYIWKIGNFGMHLKCQEEEKPVVIHSPGFYTGKPGYKLCMRLHLQLPTAQRCANYISLFVHTMQGEYDSHLPWPFQGTIRLTILDQSEAPVRQNHEEIMDAKPELLAFQRPTIPRNPKGFGYVTFMHLEALRQRTFIKDDTLLVRCEVST | – | – | Kd [6]: 37000 nM and 28000 nM and 24000 nM; Kd [7]: 240000 nM
11 | TRAF6 trimeric construct T6cc (coiled-coil and MATH domains) (domain or fragment, biotin on the BAP tag) DHQIRELTAKMETQSMYVSELKRTIRTLEDKVAEIEAQQCNGIYIWKIGNFGMHLKCQEEEKPVVIHSPGFYTGKPGYKLCMRLHLQLPTAQRCANYISLFVHTMQGEYDSHLPWPFQGTIRLTILDQSEAPVRQNHEEIMDAKPELLAFQRPTIPRNPKGFGYVTFMHLEALRQRTFIKDDTLLVRCEVSTRFD | – | – | Kd [8]: 84 nM and 46 nM and 31 nM
12 | GKYPEENDW | 240 nM | 240 nM | –
13 | HNIPTETSW | 186 nM | 186 nM | –
14 | RNVPEEIYW | 260 nM | 260 nM | –
15 | PTNKAPHPKQEPQEIDFPDDLPGSNT (9 residues resolved in PDB 1LB6 plus 8 flanking residues on each side; also called KQEPQEIDF (CD40*); not shown: eCPX (re-engineered OmpX), N-terminal, kept; FLAG, N-terminal, kept) [CD40* peptide (KQEPQEIDF with 8 flanking CD40 residues on each side) displayed on E. coli via eCPX] | – | – | Kd [9]: 1200 nM

Further lines, with some results ahead:

Row | Kd [4] | Kd [5] | Molecule | further results
16 | 169 nM | 169 nM | TRMPVESDW | –
17 | 332 nM | 332 nM | SPVPEESTW | –
18 | 581 nM | 581 nM | TYGPVENSW | –
19 | 58.3 nM | 58.3 nM | RNWPTETDW | –

Source: paper PMC9597381, “Molecular determinants of TRAF6 binding specificity suggest that native interaction partners are not optimized for affinity” (Protein Science : A Publication of the Protein Society, 2022)
